{"source": "paper PMC3694950", "target": "mitochondrial large-conductance Ca2+-regulated potassium channel (mitoBKCa channel) (human (endogenous in U-87 MG)) (UniProt Q12791)", "sequence (Q12791 whole entry, looked up)": "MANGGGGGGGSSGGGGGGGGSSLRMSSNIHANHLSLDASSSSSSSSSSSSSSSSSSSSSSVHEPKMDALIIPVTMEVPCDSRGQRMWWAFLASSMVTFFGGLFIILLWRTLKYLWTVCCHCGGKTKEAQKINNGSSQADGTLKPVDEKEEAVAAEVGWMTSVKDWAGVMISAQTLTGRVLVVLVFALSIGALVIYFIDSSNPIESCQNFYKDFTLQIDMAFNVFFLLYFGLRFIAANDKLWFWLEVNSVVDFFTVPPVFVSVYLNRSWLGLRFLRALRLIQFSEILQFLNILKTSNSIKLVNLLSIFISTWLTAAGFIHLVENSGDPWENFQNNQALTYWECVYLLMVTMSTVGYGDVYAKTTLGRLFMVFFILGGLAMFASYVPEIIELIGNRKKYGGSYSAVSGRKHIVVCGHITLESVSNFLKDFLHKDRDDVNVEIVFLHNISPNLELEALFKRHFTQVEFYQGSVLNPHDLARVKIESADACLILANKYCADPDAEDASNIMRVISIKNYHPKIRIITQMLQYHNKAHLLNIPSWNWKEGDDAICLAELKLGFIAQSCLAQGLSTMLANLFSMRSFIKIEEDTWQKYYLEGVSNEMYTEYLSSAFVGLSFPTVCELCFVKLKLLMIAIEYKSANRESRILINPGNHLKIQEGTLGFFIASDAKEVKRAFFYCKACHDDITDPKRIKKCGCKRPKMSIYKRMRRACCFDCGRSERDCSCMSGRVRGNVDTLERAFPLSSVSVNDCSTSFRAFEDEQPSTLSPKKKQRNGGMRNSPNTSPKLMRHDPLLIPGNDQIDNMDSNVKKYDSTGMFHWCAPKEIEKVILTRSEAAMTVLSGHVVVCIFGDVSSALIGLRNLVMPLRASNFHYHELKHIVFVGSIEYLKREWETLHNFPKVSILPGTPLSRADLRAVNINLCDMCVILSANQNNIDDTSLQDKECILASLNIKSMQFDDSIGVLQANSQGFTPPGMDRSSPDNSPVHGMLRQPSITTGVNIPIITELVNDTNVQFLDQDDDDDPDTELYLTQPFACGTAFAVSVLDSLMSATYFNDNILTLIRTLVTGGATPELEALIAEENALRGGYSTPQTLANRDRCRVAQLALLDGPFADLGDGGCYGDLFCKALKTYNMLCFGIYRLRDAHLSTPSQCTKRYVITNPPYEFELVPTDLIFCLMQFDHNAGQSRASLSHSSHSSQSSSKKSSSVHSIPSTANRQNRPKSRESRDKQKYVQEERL", "data": [{"substance": "iberiotoxin (from UniProt P24663 1-37) (peptide)", "values": [{"measurement": "open probability (Po) of the mitoBKCa channel in patch-clamped mitoplasts (inside-out) after 100 nM iberiotoxin; control Po 0.95", "value": 0.15, "unit": "Po"}]}]}
